By stoichiometry N is commonly meant the number of molecules, sites or subunits per partner or assembly.

The results in this text go back to paper PMC3481350.

The target of this assay is Deg2 protease (Arabidopsis thaliana), mature Deg2 (Arabidopsis thaliana). The assay can be described thus: SEC + other: dynamic light scattering.

As for “Deg2 protease (Arabidopsis thaliana), mature Deg2 (enzyme)”, the stoichiometry N was determined as 6.
